Data as given in publication PMC11341764, “Sae2 controls Mre11 endo- and exonuclease activities by different mechanisms” (Nature Communications, 2024).

B3: Rad50-FLAG (wild-type) (natural protein, yeast, UniProt P12753 1-1312, looked up)
chain: MSAIYKLSIQGIRSFDSNDRETIEFGKPLTLIVGMNGSGKTTIIECLKYATTGDLPPNSKGGVFIHDPKITGEKDIRAQVKLAFTSANGLNMIVTRNIQLLMKKTTTTFKTLEGQLVAINNSGDRSTLSTRSLELDAQVPLYLGVPKAILEYVIFCHQEDSLWPLSEPSNLKKKFDEIFQAMKFTKALDNLKSIKKDMSVDIKLLKQSVEHLKLDKDRSKAMKLNIHQLQTKIDQYNEEVSEIESQLNEITEKSDKLFKSNQDFQKILSKVENLKNTKLSISDQVKRLSNSIDILDLSKPDLQNLLANFSKVLMDKNNQLRDLETDISSLKDRQSSLQSLSNSLIRRQGELEAGKETYEKNRNHLSSLKEAFQHKFQGLSNIENSDMAQVNHEMSQFKAFISQDLTDTIDQFAKDIQLKETNLSDLIKSITVDSQNLEYNKKDRSKLIHDSEELAEKLKSFKSLSTQDSLNHELENLKTYKEKLQSWESENIIPKLNQKIEEKNNEMIILENQIEKFQDRIMKTNQQADLYAKLGLIKKSINTKLDELQKITEKLQNDSRIRQVFPLTQEFQRADLEMDFQKLFINMQKNIAINNKKMHELDRRYTNALYNLNTIEKDLQDNQKSKEKVIQLLSENLPEDCTIDEYNDVLEETELSYKTALENLKMHQTTLEFNRKALEIAERDSCCYLCSRKFENESFKSKLLQELKTKTDANFEKTLKDTVQNEKEYLHSLRLLEKHIITLNSINEKIDNSQKCLEKAKEETKTSKSKLDELEVDSTKLKDEKELAESEIRPLIEKFTYLEKELKDLENSSKTISEELSIYNTSEDGIQTVDELRDQQRKMNDSLRELRKTISDLQMEKDEKVRENSRMINLIKEKELTVSEIESSLTQKQNIDDSIRSKRENINDIDSRVKELEARIISLKNKKDEAQSVLDKVKNERDIQVRNKQKTVADINRLIDRFQTIYNEVVDFEAKGFDELQTTIKELELNKAQMLELKEQLDLKSNEVNEEKRKLADSNNEEKNLKQNLELIELKSQLQHIESEISRLDVQNAEAERDKYQEESLRLRTRFEKLSSENAGKLGEMKQLQNQIDSLTHQLRTDYKDIEKNYHKEWVELQTRSFVTDDIDVYSKALDSAIMKYHGLKMQDINRIIDELWKRTYSGTDIDTIKIRSDEVSSTVKGKSYNYRVVMYKQDVELDMRGRCSAGQKVLASIIIRLALSETFGANCGVIALDEPTTNLDEENIESLAKSLHNIINMRRHQKNFQLIVITHDEKFLGHMNAAAFTDHFFKVKRDDRQKSQIEWVDINRVTY
notes: Rad50, yeast, expressed from the pFB-RAD50-FLAG vector; Dimeric by mass photometry; also called Rad50-WT; wild-type Rad50 protein

What was measured:
Rad50-C47-FLAG (yeast) = Rad50-C47-FLAG (yeast) (UniProt P12753); assay: mass photometry; Rad50 variants alone; molecular weight estimated
Rad50-C47 = biological target: T1, Rad50-C47 (Saccharomyces cerevisiae, UniProt P12753 1-1312, K1299R); assay: EMSA; 1 mM ATP-gamma-S, 5 mM Mg2+; comparable to WT; 25 mM Tris-acetate pH 7.5, 5 mM Mg chloride, 1 mM DTT, 0.25 ug/ul BSA, 1 mM ATP-gamma-S, 1 nM DNA, 15 min at 30 C; 6% PAGE in TAE on ice; details: protein: recombinant; tags: FLAG; chain copies: 2; label: PC210 3' 32P-dC added by TdT; blunt apart from the 3' TdT-added labeled dC on PC210
T1 sequence: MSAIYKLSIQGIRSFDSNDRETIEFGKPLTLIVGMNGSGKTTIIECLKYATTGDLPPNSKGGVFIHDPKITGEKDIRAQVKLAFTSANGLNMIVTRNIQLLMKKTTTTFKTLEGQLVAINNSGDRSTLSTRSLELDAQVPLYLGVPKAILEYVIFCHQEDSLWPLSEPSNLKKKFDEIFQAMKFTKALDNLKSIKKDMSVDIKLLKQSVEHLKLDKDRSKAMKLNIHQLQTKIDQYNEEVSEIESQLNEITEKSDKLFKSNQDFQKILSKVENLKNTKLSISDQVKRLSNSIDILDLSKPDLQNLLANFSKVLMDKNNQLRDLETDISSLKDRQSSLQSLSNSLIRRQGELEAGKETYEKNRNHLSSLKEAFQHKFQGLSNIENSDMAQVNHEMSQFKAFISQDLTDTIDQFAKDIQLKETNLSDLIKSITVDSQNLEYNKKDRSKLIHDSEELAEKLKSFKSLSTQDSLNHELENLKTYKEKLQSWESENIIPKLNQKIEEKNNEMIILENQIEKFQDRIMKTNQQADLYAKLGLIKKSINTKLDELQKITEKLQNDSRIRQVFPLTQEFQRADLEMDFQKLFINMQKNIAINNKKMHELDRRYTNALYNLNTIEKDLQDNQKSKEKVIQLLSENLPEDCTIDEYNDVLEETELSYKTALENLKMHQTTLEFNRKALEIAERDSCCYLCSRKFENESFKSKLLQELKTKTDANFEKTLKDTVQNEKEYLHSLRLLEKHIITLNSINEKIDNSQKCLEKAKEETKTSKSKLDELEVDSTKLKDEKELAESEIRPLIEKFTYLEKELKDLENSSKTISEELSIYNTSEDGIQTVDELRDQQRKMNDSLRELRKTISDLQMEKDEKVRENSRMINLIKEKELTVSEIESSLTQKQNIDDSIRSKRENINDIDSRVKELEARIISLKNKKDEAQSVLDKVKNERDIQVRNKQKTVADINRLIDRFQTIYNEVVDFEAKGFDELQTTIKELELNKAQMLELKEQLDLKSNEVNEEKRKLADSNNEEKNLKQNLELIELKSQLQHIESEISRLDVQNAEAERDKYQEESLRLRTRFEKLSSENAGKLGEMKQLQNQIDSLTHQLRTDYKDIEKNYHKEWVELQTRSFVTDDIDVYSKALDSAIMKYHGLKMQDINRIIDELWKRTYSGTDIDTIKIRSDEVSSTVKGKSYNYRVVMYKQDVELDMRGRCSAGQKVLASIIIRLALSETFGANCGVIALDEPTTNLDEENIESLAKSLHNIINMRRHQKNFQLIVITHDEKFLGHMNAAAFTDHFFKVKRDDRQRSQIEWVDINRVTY

Rad50-FLAG (wild-type) = biological target: B3; assay: pull-down; MBP-pSae2 (bait) from Sf9 extracts immobilised on amylose resin and washed, incubated 1 h at 4 °C with 2.5 μg purified Rad50-FLAG variants (prey); 50 mM Tris-HCl pH 7.5, 2 mM EDTA, 80 mM NaCl, 0.2% NP40; eluted with 20 mM maltose; anti-FLAG blot; details: both partners purified
[1] = biological target: the molecule itself; assay: mass photometry; Rad50 variants alone; molecular weight estimated

Question: With “Rad50-C47-FLAG (from UniProt P12753 1-1312) (natural protein)” as the molecule, how does the stoichiometry N (Rad50-C47-FLAG (yeast)) read?
Answer: 2

B1: 70 bp dsDNA (PC210/PC211) (dsDNA)
DNA 1: GTAAGTGCCGCGGTGCGGGTGCCAGGGCGTGCCCTTGGGCTCCCCGGGCGCGTACTCCACCTCATGCATC
DNA 2: GATGCATGAGGTGGAGTACGCGCCCGGGGAGCCCAAGGGCACGCCCTGGCACCCGCACCGCGGCACTTAC
modifications: biotinylated dT in the oligonucleotides (Table S1; positions marked by bold underline, lost in the text)
Question: Does B1 bind (Rad50-C47)?
Answer: binds

B2: phosphorylated MBP-Sae2 (natural protein, yeast, UniProt P46946 1-345, looked up)
chain: MVTGEENVYLKSSLSILKELSLDELLNVQYDVTTLIAKRVQALQNRNKCVLEEPNSKLAEILCHEKNAPQQSSQTSAGPGEQDSEDFILTQFDEDIKKESAEVHYRNENKHTVQLPLVTMPPNRHKRKISEFSSPLNGLNNLSDLEDCSDTVIHEKDNDKENKTRKLLGIELENPESTSPNLYKNVKDNFLFDFNTNPLTKRAWILEDFRPNEDIAPVKRGRRKLERFYAQVGKPEDSKHRSLSVVIESQNSDYEFAFDNLRNRSKSPPGFGRLDFPSTQEGNEDKKKSQEIIRRKTKYRFLMASNNKIPPYEREYVFKREQLNQIVDDGCFFWSDKLLQIYARC
modifications: phosphorylated (expressed in the presence of phosphatases inhibitors); sites not stated
notes: Sae2, yeast, from the pFB-MBP-Sae2-His vector expressing MBP and His-tagged Sae2; also called MBP-pSae2; source: Sf9, from extracts, held on amylose resin and washed
Question: Does B2 bind (Rad50-FLAG (wild-type))?
Answer: binds

Question: Which “stoichiometry N” value [1] does the source give for B3 here?
Answer: 2
